Experiment [1] concerns the target endogenous TFPI in human plasma (human), P10646. As to the kind of experiment: cell-based or functional assay.
Experiment [2] shares this target. As to the kind of experiment: cell-based or functional assay. The source holds these as a separate data set.

Where two headings read alike, the source gives them in different places.

B1: TFPI-24 (antibody, human IgG1, lambda)
heavy: EVQLVESGGGSVQPGRSLRLSCAVSGLTIDNYAMQWVRQRPGKGLEWVSGISGNSRSIGYADSVKGRLTISRDNAKNSLYLQIDSLRADDTALYYCAIFLHESDYWGQGTLVTVSSASTKGPSVFPLAPSSKSTSGGTAALGCLVKDYFPEPVTVSWNSGALTSGVHTFPAVLQSSGLYSLSSVVTVPSSSLGTQTYICNVNHKPSNTKVDKKVEPKSCDKTHTCPPCPAPEAAGAPSVFLFPPKPKDTLMISRTPEVTCVVVDVSHEDPEVKFNWYVDGVEVHNAKTKPREEQYNSTYRVVSVLTVLHQDWLNGKEYKCKVSNKALPAPIEKTISKAKGQPREPQVYTLPPSREEMTKNQVSLTCLVKGFYPSDIAVEWESNGQPENNYKTTPPVLDSDGSFFLYSKLTVDKSRWQQGNVFSCSVMHEALHNHYTQKSLSLSPG
light: not shown
On to B1, for which, in experiment [1], the EC50 (dilute prothrombin time, clotting time) turned out to be 0.57 nM and the TGA Velocity Index at 20 nM stood at 23.2.

B2: TFPI-118 (antibody, human IgG1, lambda)
heavy: EVQLVESGGGLVQPGRSLRLSCAVSGLTIDNYAMQWVRQAPGKGLEWVSGISGNSRSIGYADSVKGRFTISRDNAKNSLYLQMNSLRAEDTALYYCAIFLHESDYWGQGTLVTVSSASTKGPSVFPLAPSSKSTSGGTAALGCLVKDYFPEPVTVSWNSGALTSGVHTFPAVLQSSGLYSLSSVVTVPSSSLGTQTYICNVNHKPSNTKVDKKVEPKSCDKTHTCPPCPAPEAAGAPSVFLFPPKPKDTLMISRTPEVTCVVVDVSHEDPEVKFNWYVDGVEVHNAKTKPREEQYNSTYRVVSVLTVLHQDWLNGKEYKCKVSNKALPAPIEKTISKAKGQPREPQVYTLPPSREEMTKNQVSLTCLVKGFYPSDIAVEWESNGQPENNYKTTPPVLDSDGSFFLYSKLTVDKSRWQQGNVFSCSVMHEALHNHYTQKSLSLSPG
light: not shown
In experiment [1], B2 displayed a Dilute PT EC50 of 1.16 nM; an EC50 (dilute prothrombin time, clotting time) of 1.16 nM; a TGA Velocity EC50 of 7.72 nM.

B3: 4D8.b1 (antibody, mouse IgG1, kappa)
heavy: EVLLQQSGPELVKPGASVKIPCKASGYTFTDYNLDWVKQSHGKSLEWIGDINPINGATLYNQKFKGKATLTVDQSSSTAYMELRSLTSEDTAVYYCSIYYGDYDAMDYWGQGASVTVSSAKTTPPSVYPLAPGSAAQTNSMVTLGCLVKGYFPEPVTVTWNSGSLSSGVHTFPAVLQSDLYTLSSSVTVPSSTWPSETVTCNVAHPASSTKVDKKIVPRDCGCKPCICTVPEVSSVFIFPPKPKDVLTITLTPKVTCVVVDISKDDPEVQFSWFVDDVEVHTAQTQPREEQFNSTFRSVSELPIMHQDWLNGKEFKCRVNSAAFPAPIEKTISKTKGRPKAPQVYTIPPPKEQMAKDKVSLTCMITDFFPEDITVEWQWNGQPAENYKNTQPIMDTDGSYFVYSKLNVQKSNWEAGNTFTCSVLHEGLHNHHTEKSLSHSPGK
light: DIVMTQSHKFMSTSVGDRVSITCKASQDVHTAVAWYQQKPGQSPRLLIYWASTRHTGVPDRFTGCGSGTDYTLTISSVQAEDLALYYCQQHYTTPYTFGGGTKLEMKADAAPTVSIFPPSSEQLTSGGASVVCFLNNFYPKDINVKWKIDGSERQNGVLNSWTDQDSKDSTYSMSSTLTLTKDEYERHNSYTCEATHKTSTSPIVKSFNRNEC
Take B3: the TGA Velocity Index at 20 nM came to 26.3 in experiment [2] and 13.5 in experiment [1].

B4: hz4D8 (antibody, human IgG1, kappa)
heavy: EVQLVESGGGLVQPGGSLRLSCAASGYTFTDYNLDWVRQAPGKGLEWVADINPINGATLYNQKFKGRFTISRDQAKNSLYLQMNSLRAEDTAVYYCARYYGDYDAMDYWGQGTLVTVSSASTKGPSVFPLAPSSKSTSGGTAALGCLVKDYFPEPVTVSWNSGALTSGVHTFPAVLQSSGLYSLSSVVTVPSSSLGTQTYICNVNHKPSNTKVDKKVEPKSCDKTHTCPPCPAPEAAGAPSVFLFPPKPKDTLMISRTPEVTCVVVDVSHEDPEVKFNWYVDGVEVHNAKTKPREEQYNSTYRVVSVLTVLHQDWLNGKEYKCKVSNKALPAPIEKTISKAKGQPREPQVYTLPPSREEMTKNQVSLTCLVKGFYPSDIAVEWESNGQPENNYKTTPPVLDSDGSFFLYSKLTVDKSRWQQGNVFSCSVMHEALHNHYTQKSLSLSPG
light: DIQMTQSPSSLSASVGDRVTITCKASQDVHTAVAWYQQKPGKAPKLLIYWASTRHTGVPSRFSGSGSGTDYTLTISSLQPEDFATYYCQQHYTTPYTFGQGTKLEIKRTVAAPSVFIFPPSDEQLKSGTASVVCLLNNFYPREAKVQWKVDNALQSGNSQESVTEQDSKDSTYSLSSTLTLSKADYEKHKVYACEVTHQGLSSPVTKSFNRGEC
As to B4, in experiment [1], the Dilute PT EC50 stood at 0.47 nM; the EC50 (dilute prothrombin time, clotting time) came to 0.47 nM; the TGA Velocity EC50 was 3.9 nM; the TGA Velocity Index at 20 nM stood at 15.7.

B5: 2A8-200 (antibody, human IgG1, lambda)
heavy: QVQLVESGGGLVQPGGSLRLSCAASGFTFRSYGMDWVRQAPGKGLEWVSSIRGSRSSTYYADSVKGRFTISRDNSKNTLYLQMNSLRAEDTAVYYCARLYRYWFDYWGQGTLVTVSSASTKGPSVFPLAPSSKSTSGGTAALGCLVKDYFPEPVTVSWNSGALTSGVHTFPAVLQSSGLYSLSSVVTVPSSSLGTQTYICNVNHKPSNTKVDKKVEPKSCDKTHTCPPCPAPEAAGAPSVFLFPPKPKDTLMISRTPEVTCVVVDVSHEDPEVKFNWYVDGVEVHNAKTKPREEQYNSTYRVVSVLTVLHQDWLNGKEYKCKVSNKALPAPIEKTISKAKGQPREPQVYTLPPSREEMTKNQVSLTCLVKGFYPSDIAVEWESNGQPENNYKTTPPVLDSDGSFFLYSKLTVDKSRWQQGNVFSCSVMHEALHNHYTQKSLSLSPG
light: DIELTQPPSVSVAPGQTARISCSGDNLRNYYAHWYQQKPGQAPVVVIFYDVNRPSGIPERFSGSNSGNTATLTISGTQAEDEADYYCQSWWDGVPVFGGGTKLTVLGQPKAAPSVTLFPPSSEELQANKATLVCLISDFYPGAVTVAWKADSSPVKAGVETTTPSKQSNNKYAASSYLSLTPEQWKSHRSYSCQVTHEGSTVEKTVAPTECS
Consider B5, for which the Dilute PT EC50 in experiment [1] is 1 nM.

For the origin of these results see EP4792830A2.
